Test system: Escherichia coli TOP10
Assay: shrunken log2 fold change of peptide-encoding DNA abundance (4.5 h post-induction vs induction); higher = less antimicrobial activity (less host growth inhibition)
Details: time post-induction: 4.5 h; library: site-saturation at positions 5, 18, 19, 20
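Note: peptides expressed intracellularly from a pBAD plasmid library in pooled LB shake-flask culture, induced with 0.3% L-arabinose, DNA abundance read by NGS, three biological replicates, DESeq2 with apeglm shrinkage.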

Sequence	shrunken log2 fold change
RRIRTRPPRLPRPRPRPASGPRP	0.614
RRIRIRPPRLPRPRPRPGSVPRP	-0.258
RRIRDRPPRLPRPRPRPDCMPRP	0.781
RRIRCRPPRLPRPRPRPVPLPRP	0.00193
RRIRWRPPRLPRPRPRPTQSPRP	0.472
RRIRTRPPRLPRPRPRPRTVPRP	0.00464
RRIRDRPPRLPRPRPRPLHFPRP	-0.0881
RRIRDRPPRLPRPRPRPFSPPRP	-0.158
RRIRIRPPRLPRPRPRPCGNPRP	0.00902
RRIRWRPPRLPRPRPRPCAYPRP	-0.129
RRIRMRPPRLPRPRPRPMQDPRP	1.14
RRIRYRPPRLPRPRPRPCHKPRP	-0.821
RRIRIRPPRLPRPRPRPSQGPRP	-0.0729
RRIRERPPRLPRPRPRPFWVPRP	0.0389
RRIRLRPPRLPRPRPRPKDKPRP	0.112
RRIRWRPPRLPRPRPRPKSYPRP	0.0188
RRIRYRPPRLPRPRPRPESVPRP	-0.316
RRIRERPPRLPRPRPRPYGPPRP	-1.02
RRIRERPPRLPRPRPRPCTEPRP	-0.196
RRIRARPPRLPRPRPRPLQNPRP	0.698
RRIRVRPPRLPRPRPRPCKQPRP	-0.148
RRIRWRPPRLPRPRPRPHSQPRP	0.0984
RRIRSRPPRLPRPRPRPNPYPRP	-0.558
RRIRSRPPRLPRPRPRPQIVPRP	-0.32
RRIRERPPRLPRPRPRPTGNPRP	-0.267

Sequence	shrunken log2 fold change
RRIRYRPPRLPRPRPRPNSCPRP	0.0432
RRIRKRPPRLPRPRPRPQLCPRP	0.129
RRIRPRPPRLPRPRPRPRPRPRP	0.744
RRIRMRPPRLPRPRPRPYWRPRP	-0.159
RRIRGRPPRLPRPRPRPEIFPRP	1.02
RRIRCRPPRLPRPRPRPMLRPRP	0.184
RRIRIRPPRLPRPRPRPKISPRP	-0.3
RRIRGRPPRLPRPRPRPVMGPRP	0.289
RRIRRRPPRLPRPRPRPFDNPRP	-0.241
RRIRFRPPRLPRPRPRPERMPRP	0.124
RRIRKRPPRLPRPRPRPPPLPRP	0.661
RRIRDRPPRLPRPRPRPSQAPRP	0.136
RRIRHRPPRLPRPRPRPDLSPRP	-0.000678
RRIRKRPPRLPRPRPRPDAHPRP	0.534
RRIRVRPPRLPRPRPRPSAIPRP	-0.258
RRIRTRPPRLPRPRPRPDNKPRP	-0.272
RRIRERPPRLPRPRPRPDNRPRP	-0.0217
RRIRERPPRLPRPRPRPTHQPRP	-0.135
RRIRDRPPRLPRPRPRPSNIPRP	-0.182
RRIRFRPPRLPRPRPRPRKDPRP	-0.302
RRIRFRPPRLPRPRPRPNLWPRP	0.031
RRIRGRPPRLPRPRPRPFCFPRP	0.778
RRIRERPPRLPRPRPRPLCEPRP	0.0297
RRIRARPPRLPRPRPRPKMNPRP	0.0254
RRIRMRPPRLPRPRPRPFYIPRP	-0.31

Sequence	shrunken log2 fold change
RRIRCRPPRLPRPRPRPMNKPRP	-0.32
RRIRIRPPRLPRPRPRPIEMPRP	-0.00843
RRIRGRPPRLPRPRPRPVILPRP	-0.33
RRIRGRPPRLPRPRPRPDCKPRP	0.577
RRIRNRPPRLPRPRPRPVTFPRP	-0.356
RRIRSRPPRLPRPRPRPYLCPRP	-0.627
RRIRDRPPRLPRPRPRPIEWPRP	0.015
RRIRDRPPRLPRPRPRPYFRPRP	-0.318
RRIRPRPPRLPRPRPRPERPPRP	0.309
RRIRPRPPRLPRPRPRPTCCPRP	-0.0529
RRIRPRPPRLPRPRPRPFNNPRP	-0.836
RRIRARPPRLPRPRPRPVTRPRP	0.35
RRIRQRPPRLPRPRPRPLNFPRP	-0.233
RRIRLRPPRLPRPRPRPAGTPRP	0.216
RRIRTRPPRLPRPRPRPGPSPRP	0.438
RRIRARPPRLPRPRPRPVNSPRP	-0.0786
RRIRHRPPRLPRPRPRPVHHPRP	-0.0583
RRIRTRPPRLPRPRPRPTTRPRP	0.223
RRIRKRPPRLPRPRPRPFWQPRP	0.0521
RRIRKRPPRLPRPRPRPMINPRP	0.148
RRIRLRPPRLPRPRPRPNYLPRP	-0.377
RRIRARPPRLPRPRPRPAPMPRP	0.799
RRIRERPPRLPRPRPRPHGQPRP	-0.0165
RRIRIRPPRLPRPRPRPEQAPRP	0.1
RRIRFRPPRLPRPRPRPTDGPRP	0.0745

Sequence	shrunken log2 fold change
RRIRWRPPRLPRPRPRPCCVPRP	-0.134
RRIRIRPPRLPRPRPRPFQAPRP	-0.0938
RRIRARPPRLPRPRPRPSHNPRP	-0.245
RRIRIRPPRLPRPRPRPYRMPRP	-1.26
RRIRNRPPRLPRPRPRPKCYPRP	-0.0478
RRIRKRPPRLPRPRPRPYGRPRP	-0.0362
RRIRTRPPRLPRPRPRPYEGPRP	-0.0536
RRIRLRPPRLPRPRPRPATGPRP	0.13
RRIRIRPPRLPRPRPRPFHHPRP	0.0886
RRIRQRPPRLPRPRPRPTWKPRP	0.00778
RRIRHRPPRLPRPRPRPRPFPRP	-0.18
RRIRHRPPRLPRPRPRPNYWPRP	-0.358
RRIRPRPPRLPRPRPRPLTIPRP	-0.275
RRIRKRPPRLPRPRPRPCNKPRP	0.0197
RRIRYRPPRLPRPRPRPSKRPRP	-0.236
RRIRERPPRLPRPRPRPWSWPRP	0.103
RRIRFRPPRLPRPRPRPFPAPRP	-0.132
RRIRYRPPRLPRPRPRPPHTPRP	-0.656
RRIRGRPPRLPRPRPRPRYFPRP	-0.0468
RRIRIRPPRLPRPRPRPMWWPRP	0.141
RRIRARPPRLPRPRPRPEMDPRP	0.41
RRIRHRPPRLPRPRPRPYDPPRP	-0.00884
RRIRHRPPRLPRPRPRPPHDPRP	0.047
RRIRYRPPRLPRPRPRPWQKPRP	-0.166
RRIRRRPPRLPRPRPRPPTDPRP	0.709

Sequence	shrunken log2 fold change
RRIRCRPPRLPRPRPRPYTTPRP	-0.97
RRIRQRPPRLPRPRPRPQMDPRP	-0.0516
RRIRVRPPRLPRPRPRPEEFPRP	-0.034
RRIRDRPPRLPRPRPRPSINPRP	-0.113
RRIRGRPPRLPRPRPRPERYPRP	-0.107
RRIRRRPPRLPRPRPRPEKFPRP	0.171
RRIRQRPPRLPRPRPRPDNRPRP	-0.00104
RRIRTRPPRLPRPRPRPHLYPRP	-0.154
RRIRCRPPRLPRPRPRPVKAPRP	0.0593
RRIRIRPPRLPRPRPRPTDTPRP	-1.86
RRIRIRPPRLPRPRPRPTTCPRP	-0.447
RRIRSRPPRLPRPRPRPSVSPRP	-0.0446
RRIRVRPPRLPRPRPRPCMNPRP	-0.31
RRIRCRPPRLPRPRPRPNFGPRP	-0.0314
RRIRPRPPRLPRPRPRPPQQPRP	0.345
RRIRHRPPRLPRPRPRPRGYPRP	-0.144
RRIRIRPPRLPRPRPRPGICPRP	-0.0709
RRIRDRPPRLPRPRPRPELEPRP	0.05
RRIRDRPPRLPRPRPRPMCEPRP	-0.0122
RRIRTRPPRLPRPRPRPECQPRP	0.0443
RRIRTRPPRLPRPRPRPEVIPRP	-0.0149
RRIRDRPPRLPRPRPRPPGNPRP	0.21
RRIRWRPPRLPRPRPRPTWNPRP	0.306
RRIRYRPPRLPRPRPRPKFEPRP	-0.0286
RRIRGRPPRLPRPRPRPLPMPRP	0.666

From the supplement of paper PMC9112550, “Optimization of the antimicrobial peptide Bac7 by deep mutational scanning” (BMC Biology, 2022)
